Results as given in patent publication US20260167718A1 (Merck Sharp & Dohme, published 2026).
Where two headings read alike, the source gives them in different places.

How the values were obtained:
[1] = molecular target: T1, human ILT3 expressed on cells (human, UniProt Q8NHJ6 22-448); assay: cELISA, CHO human ILT3 cells
T1 construct: whole, on cells; also called huILT3; LILRB4
Description: (§1) Mouse anti-human ILT3 antibodies were tested for binding to human ILT3, and cross-reactivity to Rhesus monkey ILT3, human ILT5, human ILT7, human ILT8, and human ILT11 expressing CHO-K1 cells using a cell-based ELISA format. CHO-K1 cells were plated in 96-well tissue-culture plates in 50 μL of DMEM/F12, 10% BCS and gentamycin (CHO-K1 media). Cells were plated at either 2×10⁴ cells/well two days prior to the assay or 4×10⁴ cells/well one day prior to the assay. Media was removed from the wells prior to adding the test samples. Purified antibody was serially-diluted in CHO-K1 media and added to the CHO-K1 plates. The samples were incubated at room temperature for 30-60 minutes and plates were washed three times with PBS/05% Tween-20 using the cell wash program on the Biotek EL405x Select CW plate washer. Binding was detected using an HRP-conjugated goat anti-mouse IgG (Southern Biotech cat #1031-05) secondary antibody added at a 1:2000 dilution in CHO-K1 media and incubated at room temperature for 30-60 minutes. Assay plates were washed as above and developed with TMB and stopped with TMB stop solution (KPL cat #50-85-06). The absorbance at 450 nm—620 nm was determined. Mouse IgG1 (MIgG1) served as a control.

[2] = molecular target: T1, human ILT3 expressed on cells; assay: cELISA, CHO human ILT3 cells; remark: listed apart in the source
[3] = molecular target: T2, Human ILT3 (LILRB4) extracellular domain with C-terminal His Tag (human, UniProt Q8NHJ6 22-259); assay: SPR (Biacore), human ILT3-His
T2 construct: the claims count residues 1-238 as the extracellular domain; also called human ILT3-His; ILT3_H

[4] = molecular target: T3, Rhesus monkey ILT3 expressed on CHO-K1 cells (rhesus monkey (Macaca mulatta)); assay: cELISA, CHO rhesus ILT3 cells
T3 construct: whole, on cells; also called rhILT3; CHO-rhesus ILT3
Description: as §1

[5] = molecular target: T3, Rhesus monkey ILT3 expressed on CHO-K1 …; assay: cELISA, CHO rhesus ILT3 cells; remark: listed apart in the source
[6] = molecular target: T4, rhesus ILT3-His tagged recombinant protein (rhesus monkey (Macaca mulatta)); assay: SPR (Biacore), rhesus ILT3-His
T4 construct: also called ILT3_MM; not shown: His tag
T4 chain: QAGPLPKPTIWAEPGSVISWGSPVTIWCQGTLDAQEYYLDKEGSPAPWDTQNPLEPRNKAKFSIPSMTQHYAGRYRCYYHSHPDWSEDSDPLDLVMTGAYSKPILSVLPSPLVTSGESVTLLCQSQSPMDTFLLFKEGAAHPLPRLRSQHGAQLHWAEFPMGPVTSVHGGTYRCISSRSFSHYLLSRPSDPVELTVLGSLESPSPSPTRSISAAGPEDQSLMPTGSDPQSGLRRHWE

[7] = molecular target: T4, rhesus ILT3-His tagged recombinant …; assay: SPR (Biacore), rhesus ILT3-His
In short: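 Antibodies captured on anti-human Fc surface, with human or rhesus ILT3-His as analyte in HBS-EP+ running buffer; reference flow cell subtracted, regeneration with 3M MgCl₂. ka and kd obtained from 1:1 Langmuir fits, KD = kd/ka.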

[8] = molecular target: T2, Human ILT3 (LILRB4) extracellular …; assay: SPR (Biacore), human ILT3-His; Table 7 value; Table 5 gives 1.79 × 10^-09 M
Description: The binding kinetics and affinities of anti-human ILT3 clones for human or rhesus ILT3-His tagged recombinant protein were measured by surface plasmon resonance using a Biacore™ T200 system (GE Healthcare, Piscataway, NJ). HBS-EP+ buffer (BR-1006-69) was used as the running buffer. Anti-human Fc antibody (Human Fc Capture Kit, BR100839, GE Healthcare) was immobilized via amine coupling chemistry in all four flow cells on a Series S CM5 sensor chip (BR100530 or 29149603, GE Healthcare) following manufacturer instructions. Flow cell 1 was used as reference for background subtraction and was not used for capture. […] Following each injection cycle, all four flow cells were regenerated using 30 second injection of 3M MgCl₂ solution at a flow rate of 10 μL/minute. Reference subtracted sensorgrams were fit to a 1:1 Langmuir Binding Model in the Biacore™ T200 Evaluation Software (Version 2.0) to determine the association (ka) and dissociation (kd) rate constants and the equilibrium dissociation constant KD (=kd/ka).
Table 7 summarizes the binding kinetics and affinities for the ani-human ILT3 antibodies to recombinant human or rhesus ILT3.

- EC50 [1]: 0.0179 µg/mL
- EC50 [2]: 17.9 µg/mL
- Kd [3]: 1790 pM
- EC50 [4]: 0.0259 µg/mL
- EC50 [5]: 25.9 µg/mL
- Kd [6]: 946 pM
- Kd [7]: 995 pM
- Kd [8]: 713 pM
B1: Rat anti-ILT3 mAb 40A6 IgG2a/Kappa (antibody, V domains shown)
VH: QVQLKESGPGLVQASETLSLTCTVSGFSLTSYSINWVRQSSGKGPEWMGRFWYDEGIAYNLTLESRLSISGDTSKNQVFLKMNSLRTGDTGTYYCTRDRDTVGITGWFAYWGQGTLVTVSS
VL: ETVMTQSPTSLSASIGERVTLNCKASQSVGVNVDWYQQTPGQSPKLLIYGSANRHTGVPDRFTGSGFGSDFTLTISDVEPEDLGVYYCLQYGSVPYTFGAGTKLELK
notes: Rat IgG2a/Kappa; also called p40A6; LB184.40A6.1C1
